{"source": "patent US20240166738A1", "about": "(Alector, published 2024); as to % Protection from CPE: test concentration or dose not given here", "binders": {"B1": {"name": "TM-65 (antibody, V domains shown)", "VH": "QVQLQQPGAEFVKPGASVRLSCKTSGYTFTSSWMHWVKQRPGQGLEWIGEINPKNGGTNYNEKFKTKATLTVDKSSNTAYMQLSSLTSEDSAVYYCTIPTWFTYWGQGTLVTVSS", "VL": "DIQMNQSPSSLSASLGDTITITCRASQNINIWLSWYQQKPGNVPKLLIYKASNLHTGVPSRFSGSGSGTGFTLTISSLQPEDIATYYCLQGQSYPYTFGGGTKLGIK", "notes": "mouse hybridoma mAb"}, "B2": {"name": "TM-8 (antibody, V domains shown)", "VH": "QIQLVQSGPELKKPGETVKISCKASGYTFTDYPMHWVKQAPGKGFKWMGVIYTDTGEPKYAEVFKGRFAFSLETSASTAYLQINNLKNEDTATYFCVRRLAYWGQGTLVTVSA", "VL": "DIKMTQSPSSMYASLGERVTITCKASQDINSYLSWFQQKPGKSPKTLIFRANRLVDGVPSRFSGSGSGQDYSLTISSLEYEDMGIYYCLQYDEFPLTFGAGTKLEMK", "notes": "mouse hybridoma mAb"}, "B3": {"name": "TM-81 (antibody, V domains shown)", "VH": "QVQLQQSGAELVKPGASVKLSCKASGYTFTSYWMHWVKQRPGQGLEWIGNIDPSDSEIHYNQKFKDKATLTVDKSSSTAYIQLSSLTSEDSAVYYCARSPAGQILDYWGQGTTVTVSS", "VL": "not shown", "notes": "mouse hybridoma mAb"}, "B4": {"name": "TM-69 (antibody, V domains shown)", "VH": "QVQLKESGPDLVQPSQTLSLTCTVSGFSFTSYGVHWVRQPPGKGLEWVGIMGWDDKKYYNSALKSRLSISRDTSKNQVFLKLSSLQTEDTAMYYCTREAGPYGMDYWGQGTSVTVSS", "VL": "DVVMTQTPLSLPVSLGDQASISCRSSQSLVHSNGNTYLHWYLQKPGQSPKLLIYKVSNRFSGVPDRFSGSGSGTDFTLKISRVEAEDLGVYFCSQNTHVPLTFGAGTKLELK", "notes": "mouse hybridoma mAb"}, "B5": {"name": "TM-71 (antibody, V domains shown)", "VH": "EVQLVESGGALVKPGGSLKLSCAASGFTFSNYAMSWVRQTPEKRLEWVATIGYGGSYSYYPDSVKGRFTISRDNAKNTLYLQMSSLRSEDTALYYCARQDSNYEGVWFAYWGQGTLVTVSS", "VL": "DIVMTQAAPSVPVTPGESVSISCRSSKSLLHTNGNTYLFWFIQRPGQSPHLLIYRKSNLASGVPDRFSGSGSGTAFTLRISRVEAEDVGVYYCMQHLEYPFTFGSGTKLEIK", "notes": "mouse hybridoma mAb"}, "B6": {"name": "TM-2 (antibody, V domains shown)", "VH": "HIQLVQSGPELKKPGETVKISCKASGYTFTEYPMHWVKQAPGKGFRWMGMIYTNTGEPTYAAEFKGRFAFSLETSASTGYLQINNLKNEDSATYFCVTAGYWGQGTLVTVSA", "VL": "QIVLTQSPAILSASPGEKVTMTCRASSSVSYIHWFLQKPGSSPKPWIYATSNLASGVPFRFIGSGSGTSYSLTISGVEAEDSATYYCQQWSSNPSTFGAGTKLELK", "notes": "mouse hybridoma mAb"}, "B7": {"name": "TM-14 (antibody, V domains shown)", "VH": "QVQLQQSGPELVRPGTSVKVSCKASGYAFTNYLIEWVKQRPGQGLEWIGVINPGGGNTDYSEKFKDKATLTADKSSNTAYIQLSSLTSEDSAVYFCARSPYSSYVGYAVDYWGQGTSVTVSS", "VL": "DIQMTQSPSSLSASLGERVSLTCRASQDIGSNLNWLQQEPDGTIKRLIYATSSLDSGVPKRFSGSRSGSDYSLTISSLESEDFVVYYCLQYASSPRTFGGGTRLEIK", "notes": "mouse hybridoma mAb"}, "B8": {"name": "TM-75 (antibody, V domains shown)", "VH": "EVQLQQSGPELVKPGASVKMSCKASGYTFTSYVMHWVKQKPGQGLEWIGYINPYNDGTKYNEKFKGKATLTSDKSSSTAYMELSSLTSEDSAVYYCARGGWFPYAMDYWGQGTTVTVSS", "VL": "not shown", "notes": "mouse hybridoma mAb"}, "B9": {"name": "TM-6 (antibody, V domains shown)", "VH": "QVQLQQSGAELVKPGASVKLSCKASGYTFTEYTIHWVKQRSGQGLEWIGWFYPGSTYIDYNEKFKDKATLTADKSSSTVYLELSRLTSEDSAVYFCARHEEDYSNWFPFWGQGTLVTVSA", "VL": "DIQMSQSSSYLSVSLGGRVTITCKASDHINNWLAWYQQKPGNAPRLLISGATSLETGVPSRFSGSGSGKDYTLSITSLQTEDVATYYCQQYWSSPYTFGGGTKLEIK", "notes": "mouse hybridoma mAb"}, "B10": {"name": "TM-85 (antibody, V domains shown)", "VH": "QVQLQQPGAELVRAGTSVKLSCKASGYTFIGYWMHWVKQRPGRGLEWIGRIDPYSGDTRYNEKFKNKATLTVDKPSSTAYMQLSSLTSEDSAVYYCARYGLGHAMDYWGQGTSVTVSS", "VL": "DIAMSQSQKFMSTSVGDRVSVTCKASQNVGTNVAWYQQKPGQSPKALIYSASYRYSGVPDRFTGSGSGTDFTLTISNVQSEDLAEYFCQQYNSYPLTFGAGTKLEMK", "notes": "mouse hybridoma mAb"}, "B11": {"name": "TM-33 (antibody, V domains shown)", "VH": "EFQLQQSGPELVKPGASVKISCKASGYSFTDYNMNWVKQSNGKSLEWIGVINPNYGTTSYNQKFKGKATLTVDQSSSTAYMQLNSLTSEDSAVYYCASSYWGQGTLVTVSA", "VL": "DIVMTQSQKFMSTTVGDRVSITCKASQNVGTAVAWYQQKPGQSPKLLIYSASNRYTGVPDRFTGSGSGTDFTLTISNMQSEDLADYFCQQYSSYPYTFGGGTKLEIK", "notes": "mouse hybridoma mAb"}, "B12": {"name": "TM-52 (antibody, V domains shown)", "VH": "QVQLQQPGAELVKPGASVKLSCKASGYTFTNYWMHWVKQRPGQGLDWIGNIDPSDSETHYNQKFKDKATLTVDKVSSTAYMQLSSLTSEDSAVYYCARRGYYGRSPFAYWGQGTLVTVSA", "VL": "ENVLTQSPAIMSASPGEKVTMTCSASSSVSYMHWYQQKSNTSPKLWIYDTSKLASGVPGRFSGSGSGNSYSLTISSAEAEDVATYYCFQGSGYPLTFGAGTKLELK", "notes": "mouse hybridoma mAb"}, "B13": {"name": "TM-27 (antibody, V domains shown)", "VH": "QVQLQQSGAELVRPGTSVKVSCKASGYALTNYLIEWVKQRPGQGLEWIGVINPGSGSTKYNEKFKGKATLTADKSSSTAYMQLSSLTSEDSAVYFCARIIYDHDWYFDVWGTGTTVTVSS", "VL": "QIVLTQSPAIMSASPGEKVTISCSASSSISYMYWYQQKPGSSPKPWIYRTSTLASGVPARFSGSGSGTSYSLTISSMEAEDAATYYCQQYHSYPRTFGGGTKLEIK", "notes": "mouse hybridoma mAb"}}, "key": {"human TMEM106B": {"biological_target": "human TMEM106B (human, UniProt Q9NUM4 2-274)", "assay": "cell-based or functional assay"}, "[1]": {"biological_target": "T1, GST-TMEM106B (truncated, comprising amino acids 122-210 of SEQ ID NO:1) (human, UniProt Q9NUM4 122-210)", "T1 construct": "GST written first by the name only; also called truncated GST-TMEM106B fusion protein; GST-TMEM106B polypeptide fusion; not shown: GST fusion partner", "assay": "pre-mix epitope binning, antibody immobilized on chip array"}}}
{"binder": "B1", "values": [{"measurement": "% Protection from CPE", "setting": "human TMEM106B", "result": 4, "unit": "%"}, {"measurement": "binding result", "setting": "[1]", "result": "no binding (tested: 55 nM antigen (2 ug/mL))"}]}
{"binder": "B2", "values": [{"measurement": "% Protection from CPE", "setting": "human TMEM106B", "result": 3.8, "unit": "%"}, {"measurement": "binding result", "setting": "[1]", "result": "no binding (tested: 55 nM antigen (2 ug/mL))"}]}
{"binder": "B3", "values": [{"measurement": "% Protection from CPE", "setting": "human TMEM106B", "result": 4.6, "unit": "%"}, {"measurement": "binding result", "setting": "[1]", "result": "no binding (tested: 55 nM antigen (2 ug/mL))"}]}
{"binder": "B4", "values": [{"measurement": "% Protection from CPE", "setting": "human TMEM106B", "result": 4.3, "unit": "%"}, {"measurement": "binding result", "setting": "[1]", "result": "no binding (tested: 55 nM antigen (2 ug/mL))"}]}
{"binder": "B5", "values": [{"measurement": "% Protection from CPE", "setting": "human TMEM106B", "result": 3.2, "unit": "%"}, {"measurement": "binding result", "setting": "[1]", "result": "no binding (tested: 55 nM antigen (2 ug/mL))"}]}
{"binder": "B6", "values": [{"measurement": "% Protection from CPE", "setting": "human TMEM106B", "result": 4.3, "unit": "%"}, {"measurement": "binding result", "setting": "[1]", "result": "no binding (tested: 55 nM antigen (2 ug/mL))"}]}
{"binder": "B7", "values": [{"measurement": "% Protection from CPE", "setting": "human TMEM106B", "result": 4, "unit": "%"}, {"measurement": "binding result", "setting": "[1]", "result": "no binding (tested: 55 nM antigen (2 ug/mL))"}]}
{"binder": "B8", "values": [{"measurement": "% Protection from CPE", "setting": "human TMEM106B", "result": 5.1, "unit": "%"}, {"measurement": "binding result", "setting": "[1]", "result": "no binding (tested: 55 nM antigen (2 ug/mL))"}]}
{"binder": "B9", "values": [{"measurement": "% Protection from CPE", "setting": "human TMEM106B", "result": 4.4, "unit": "%"}, {"measurement": "binding result", "setting": "[1]", "result": "no binding (tested: 55 nM antigen (2 ug/mL))"}]}
{"binder": "B10", "values": [{"measurement": "% Protection from CPE", "setting": "human TMEM106B", "result": 5.2, "unit": "%"}, {"measurement": "binding result", "setting": "[1]", "result": "no binding (tested: 55 nM antigen (2 ug/mL))"}]}
{"binder": "B11", "values": [{"measurement": "% Protection from CPE", "setting": "human TMEM106B", "result": 4.4, "unit": "%"}, {"measurement": "binding result", "setting": "[1]", "result": "no binding (tested: 55 nM antigen (2 ug/mL))"}]}
{"binder": "B12", "values": [{"measurement": "% Protection from CPE", "setting": "human TMEM106B", "result": 3.6, "unit": "%"}, {"measurement": "binding result", "setting": "[1]", "result": "no binding (tested: 55 nM antigen (2 ug/mL))"}]}
{"binder": "B13", "values": [{"measurement": "% Protection from CPE", "setting": "human TMEM106B", "result": 5.2, "unit": "%"}, {"measurement": "binding result", "setting": "[1]", "result": "no binding (tested: 55 nM antigen (2 ug/mL))"}]}
